Here are results for one molecule from US20050049201A1, “Detection and removal of lead using lead-binding proteins” (priority 2001, published 2005).

Assay [1] in a line: Solid phase assay for lead: protein on nitrocellulose with chromogenic dye. As to conditions: combined results, various buffers, pH, salts and dyes. The procedure:
A solid phase assay for the detection of lead was also developed using one or more synthetically produced lead-binding proteins. Both TB4 and ACBP and the various mutants that have been generated from them can be used in this assay. The experiment is performed by binding the protein to a solid surface support, such as nitrocellulose paper, cotton, glass microfibers, or polystyrene beads using, for example, methods described herein. Then the sample to be tested, such as saliva or blood, is placed onto the surface and allowed to react with the protein. After washing with buffer, or example a neutral non-chelating buffer to remove any unreacted material, the sample is treated with a ligand that can detect a lead-leading binding protein complex, for example, a ligand that can cause a color chance upon detecting a lead-protein complex. Examples of such ligands include, sodium sulfide and sodium rhodizonic acid. Furthermore, the concentration of the lead in the sample being tested may be determined by the intensity of the spot produced upon binding of the dye. […]
As a control, the assay was tested using solutions containing several different buffers, pH conditions, and salts for reaction with the sodium sulfide and sodium rhodizonic acid dyes used. […] The pH was determined empirically for rhodizonic acid over a range of pH 4 to pH 8. […]

The conditions of assay [2]: lead binding; Quintanilla-Vega 1995, Smith 1998; read-out: dissociation constant (Kd) of high affinity lead-binding region; cited from earlier work.

B1: acyl-CoA binding protein (protein, listed as Homo sapiens)
chain: MSQAEFEKAAEEVRHLKTKPSDEEMLFIYGHYKQATVGDINTERPGMLDFTGKAKWDAWNELKGTSKEDAMKAYINKVEELKKKYGI
By Kd is commonly meant the free concentration of one partner at which half of the binding sites on the other are occupied at equilibrium, for simple one-to-one binding. On to B1, for which the “performance of solid phase lead detection assay” value in assay [1] is listed as “works well under various conditions”. Further, the Kd in assay [2] is roughly 1 nM.
